The results in this text go back to US20190040115A1 (IMMATICS BIOTECHNOLOGIES, published 2019).

The experiment concerns the target T1, HLA-A*02:01 (human).
T1 construct: captured on streptavidin plates; also called peptide-receptive MHC molecules
The experiment in a line: UV peptide exchange ELISA (anti-b2m); yield grade: + >10%, ++ >20%, +++ >50, ++++ >75%. The text has this:
Candidate peptides for T cell based therapies according to the present invention were further tested for their MHC binding capacity (affinity). The individual peptide-MHC complexes were produced by UV-ligand exchange, where a UV-sensitive peptide is cleaved upon UV-irradiation, and exchanged with the peptide of interest as analyzed. Only peptide candidates that can effectively bind and stabilize the peptide-receptive MHC molecules prevent dissociation of the MHC complexes. To determine the yield of the exchange reaction, an ELISA was performed based on the detection of the light chain (β2m) of stabilized MHC complexes. The assay was performed as generally described in Rodenko et al. (Rodenko et al., 2006).
96 well MAXISorp plates (NUNC) were coated over night with 2 ug/ml streptavidin in PBS at room temperature, washed 4× and blocked for 1 h at 37° C. in 2% BSA containing blocking buffer. Refolded HLA-A*02:01/MLA-001 monomers served as standards, covering the range of 15-500 ng/ml. Peptide-MHC monomers of the UV-exchange reaction were diluted 100 fold in blocking buffer. Samples were incubated for 1 h at 37° C., washed four times, incubated with 2 ug/ml HRP conjugated anti-β2m for 1 h at 37° C., washed again and detected with TMB solution that is stopped with […]. Absorption was measured at 450 nm. Candidate peptides that show a high exchange yield (preferably higher than 50%, most preferred higher than 75%) are generally preferred for a generation and production of antibodies or fragments thereof, and/or T cell receptors or fragments thereof, as they show sufficient avidity to the MHC molecules and prevent dissociation of the MHC complexes.

With RLDDKTTNV, the peptide exchange yield was in the range of 50 to 75%. With QLMEGKVVL the figure was above 75%. To TLPNIYVTL belongs 50 to 75%; to VVDDIVSKL, 20 to 50%; to YVIDPIKGL, 50 to 75%. With FAYDGKDYIAL the figure was 50 to 75%. Take LLGEGIPSA: the peptide exchange yield is above 75%. To KQQASQVLV belongs 50 to 75%. To NLREILQNV belongs 50 to 75%; to ILPSNLLTV, 50 to 75%.

VLPAVLTRL: the peptide exchange yield lay within 50 to 75%. Consider FVDGSAIQV, for which the peptide exchange yield lay within 50 to 75%. With TLVAFLQQV the figure was above 75%; with VLYDPVVGC, above 75%.

Regarding VLYSLVSKI, the peptide exchange yield fell in the range of 50 to 75%. With FLDDQETRL the figure was 50 to 75%; with FLEDLVPYL, above 75%. For IMEDFTTFL, the peptide exchange yield was above 75%.

Take YLDTFALKL: the peptide exchange yield is above 75%. As to TMIEICEKL, the peptide exchange yield is above 75%. With SLIDFVVTC the figure was 50 to 75%; with VLPDDLSGV, 50 to 75%; with IQSETTVTV, above 75%.

On to TLISDIEAVKA, for which the peptide exchange yield fell in the range of 50 to 75%. To TLSEICEFI belongs above 75%. With FLDASGAKL the figure was above 75%. With VLYEMLYGL the figure was above 75%; with KMTQYITEL, above 75%; with ALFPGDVDRL, 50 to 75%. Regarding SLDAVMPHL, the peptide exchange yield was in the range of 50 to 75%. To AVDATVNQV belongs 50 to 75%; to FLDVKELML, above 75%; to ILDDSALYL, above 75%.

With SLGLGFISRV, the peptide exchange yield lay in the range of 50 to 75%. To SVDEVEISV belongs 50 to 75%; to TLIELLLPKL, above 75%; to FLPQKIIYL, above 75%. To VLDVSFNRL belongs 50 to 75%; to ILDDQTNKL, 50 to 75%; to TLKDIVQTV, 50 to 75%. Turning to YVDDFGVSV, the peptide exchange yield lay in the range of 50 to 75%. To FLGEPASYLYL belongs above 75%. To LMDETMKEL belongs above 75%; to NVDENVAEL, 20 to 50%; to VIDDLIQKL, 20 to 50%. Turning to FVDPNGKISL, the peptide exchange yield is 50 to 75%. Consider SLKQTVVTL, for which the peptide exchange yield was in the range of 50 to 75%.

On to YIDDVFMGL, for which the peptide exchange yield was 50 to 75%. To VLDTLTKVL belongs 50 to 75%; to ALDPAYTTL, 50 to 75%.

RLDEVSREL: the peptide exchange yield lay within 50 to 75%. To YLFAFLNHL belongs above 75%.

In the case of RLEAYLARV, the peptide exchange yield fell in the range of 50 to 75%. To YLDKTFYNL belongs 50 to 75%. With LLDEVLHTM the figure was above 75%. With GLVDVLYTA the figure was 50 to 75%; with KLFPSPLQTL, above 75%. For the molecule GVGPVPARA, the peptide exchange yield lay in the range of 50 to 75%. To TVIRPLPGL belongs 20 to 50%.

For RLPDQFSKL, the peptide exchange yield was in the range of 50 to 75%. For the molecule SLDQIIQHL, the peptide exchange yield is 50 to 75%.
